Measurements from article PMC7007526.

Molecular target: CPn0678–GFP (Chlamydia pneumoniae)
Assay: FRET or BRET

mCherry–SNX9 (from UniProt Q9Y5X1 1-595) (natural protein)
average donor fluorescence lifetime with the acceptor (FLIM-FRET): 2.6 ns
reduction of donor fluorescence lifetime (FLIM-FRET): 256 ps
